B1: Azoarcus group I ribozyme (parent)
chain: GUGCCUUGCGCCGGGAAACCACGCAAGGGAUGGUGUCAAAUUCGGCGAAACCUAAGCGCCCGCCCGGGCGUAUGGCAACGCCGAGCCAAGCUUCGGCGCCUGCGCCGAUGAAGGUGUAGAGACUAGACGGCACCCACCUAAGGCAAACGCUAUGGUGAAGGCAUAGUCCAGGGAGUGGCGAAAGUCACACAAACCGG

Variants of: B1
Assay: reverse-splicing fitness (ratio to wild type); higher = more active; in vitro selection; Mg2+ level not given
Summary of the method: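 An in vitro group I ribozyme library with randomized positions was T7-transcribed and gel-purified. In triplicate, 10 pmol RNA in EPPS pH 7.5 was reacted with 50 pmoles of a 30-nt RNA substrate for 1 h at 37 °C across several added MgCl2 levels (1–48 mM), then stopped with EDTA. Products were reverse transcribed from a substrate-complementary primer, PCR-amplified and sequenced (HiSeq 4000). Fitness is a variant's read proportion after selection over that before, normalised to wild type.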

Variant | reverse-splicing fitness
C82G A111U A120U C169A | 0.0043
C82G A111U A120U C169U | 0.00476
C82G A111U A120U C169G | 0.00462
C82G A111U A145G C150U C169A U176G | 0.00701
C82G A111U A145G C150U C169A U176A | 0.0163
C82G A111U A145G C150U C169A U176C | 0.0164
C82G A111U A120U A145U C150A C169U U176C | 0.00276
C82G A111U A120U A145U C150A C169U U176A | 0.00313
C82G A111U A120U A145U C150A C169U U176G | 0.00195
C82G A111U A120U A145U | 0.0429
C82G A111U A145U C150G U176G | 0.0057
C82G A111U A145U C150G U176C | 0.0254
C82G A111U A145U C150G U176A | 0.0141
C82G A111U A120U A145U C150G C169G U176A | 0.0031
C82G A111U A120U A145U C150G C169G U176C | 0.00282
C82G A111U A120U A145U C150G C169G U176G | 0.0021
C82G A111U A120U A145U C150A C169A U176G | 0.00209
C82G A111U A120U A145U C150A C169A U176A | 0.00349
C82G A111U A120U A145U C150A C169A U176C | 0.00255
C82G A111U A145G C150G U176C | 0.0285
C82G A111U A145G C150G U176A | 0.0137

Variant | reverse-splicing fitness
C82G A111U A145G C150G U176G | 0.00893
C82G A111U A120U C150U C169A U176C | 0.00328
C82G A111U A120U C150U C169A U176G | 0.00241
C82G A111U A120U C150U C169A U176A | 0.00512
C82G A111U A145C C150A C169A U176A | 0.0125
C82G A111U A145C C150A C169A U176G | 0.0075
C82G A111U A145C C150A C169A U176C | 0.00716
C82G A111U A145G C150G C169U U176A | 0.0125
C82G A111U A145G C150G C169U U176G | 0.00808
C82G A111U A145G C150G C169U U176C | 0.0134
C82G A111U A145C C150A C169G U176G | 0.00716
C82G A111U A145C C150A C169G U176A | 0.0227
C82G A111U A145C C150A C169G U176C | 0.0155
C82G A111U A120U A145U C150G C169U U176A | 0.00286
C82G A111U A120U A145U C150G C169U U176G | 0.00286
C82G A111U A120U A145U C150G C169U U176C | 0.0029
C82G A111U A120U A145U C169G | 0.00331
C82G A111U A120U A145U C169A | 0.00258
C82G A111U A120U A145U C169U | 0.00419
C82G A111U A120U A145U C169G U176A | 0.00265
C82G A111U A120U A145U C169G U176C | 0.0026

Variant | reverse-splicing fitness
C82G A111U A120U A145U C169G U176G | 0.00186
C82G A111U A120U A145U C169U U176A | 0.00233
C82G A111U A120U A145U C169U U176G | 0.00177
C82G A111U A120U A145U C169U U176C | 0.00275
C82G A111U A145G C150G C169G | 0.00715
C82G A111U A145G C150G C169U | 0.00972
C82G A111U A145G C150G C169A | 0.00977
C82G A111U A145G C150G C169G U176G | 0.0062
C82G A111U A145G C150G C169G U176C | 0.0129
C82G A111U A145G C150G C169G U176A | 0.0107
C82G A111U A145C C150U C169A | 0.00882
C82G A111U A145C C150U C169G | 0.00762
C82G A111U A145C C150U C169U | 0.0104
C82G A111U A145C C150U C169A U176A | 0.0133
C82G A111U A145C C150U C169A U176C | 0.00701
C82G A111U A145C C150U C169A U176G | 0.00702
C82G A111U A120U A145U C150U C169G U176C | 0.00287
C82G A111U A120U A145U C150U C169G U176G | 0.00218
C82G A111U A120U A145U C150U C169G U176A | 0.00344
C82G A111U A120U C150G C169A | 0.00722
C82G A111U A120U C150G C169U | 0.00549

Variant | reverse-splicing fitness
C82G A111U A120U C150G C169G | 0.0064
C82G A111U A120U C169U U176G | 0.00182
C82G A111U A120U C169U U176A | 0.00485
C82G A111U A120U C169U U176C | 0.00393
C82G A111U A120U C150A C169A U176A | 0.00677
C82G A111U A120U C150A C169A U176G | 0.00233
C82G A111U A120U C150A C169A U176C | 0.00429
C82G A111U A120U A145G C150U C169A U176C | 0.00451
C82G A111U A120U A145G C150U C169A U176A | 0.0082
C82G A111U A120U A145G C150U C169A U176G | 0.00276
C82G A111U A120U U176A | 0.0109
C82G A111U A120U U176G | 0.00464
C82G A111U A120U U176C | 0.0167
C82G A111U A120U C150G | 0.00761
C82G A111U A120U C150A | 0.00965
C82G A111U A120U C150U | 0.0256
C82G A111U A145G C150A C169G U176G | 0.00671
C82G A111U A145G C150A C169G U176A | 0.0179
C82G A111U A145G C150A C169G U176C | 0.0282
C82G A111U A120U A145U C150A U176C | 0.00518
C82G A111U A120U A145U C150A U176A | 0.00457

— the RNAGym collection of RNA variant scans (doi:10.1093/molbev/msab373)
